# Assays:
# [1] = Brain clearance technique: clearance of radiolabelled tracer from brain ISF and across the BBB after microinjection into the caudate nucleus; type: in vivo; settings: for clearance from the brain ISF: 40 nM tracer microinjected into brain ISF, FIG. 1A/1B
# Protocol: The brain clearance technique was used to determine Aβ clearance across the BBB and from CSF, as previously described (Shibata et al., 2000; Deane et al., 2004). Briefly, 0.5 μl of ^125I-Aβ42 (40 nM), ^125I-apoJ (40 nM) or ^125I-Aβ-apoJ (40 nM) was microinjected into the caudate nucleus simultaneously with ^14C-inulin (an inert reference molecule as an index of interstitial fluid (ISF) bulk flow) and, after 30 minutes (a typical time point unless stated), the brain was removed and radiolabel was counted.
# ^125I-Aβ-apoJ complex was prepared by incubating ^125I-Aβ42 and apoJ at a molar ratio of 15 to 1 (^125I-Aβ42: apoJ) at 37° C. for 3 hours, and excess ^125I-Aβ42 was removed by ultrafiltration with a 30 kD molecular weight cut-off membrane.
# (§1) Percentage ^125I-(TCA precipitable) recovery in brain=NB/NI×100. Where NB is the ^125I-(TCA precipitable) recovered in brain and NI is the ^125I-(TCA precipitable) injected into brain ISF or CSF. Total ^125I-(TCA precipitable) clearance from brain ISF consists of two components: clearance across the BBB and clearance via bulk flow of ISF. Therefore, clearance across the BBB was calculated from the difference between total ^125I-(TCA precipitable) clearance and ^14C-inulin clearance (ISF bulk flow) as described (Shibata et al., 2000). Similarly, the percentage ^125I-(TCA precipitable) recovery in brain after microinjection into the CSF=NB/NI×100.
# [2] = CSF clearance study: microinjection into the lateral ventricle; type: in vivo; settings: 40 nM; after 30 minutes; microinjection into the lateral ventricles; FIG. 1E
# Protocol: In the CSF clearance studies, 0.5 μl of ^125I-apoJ (40 nM) was micro-injected into the right lateral ventricles (coordinates (mm) from bregma: antero-posterior −0.5, mediolateral +1.0, dorsoventral −2.2) simultaneously with ^14C-inulin (the inert reference molecule), the brain was removed after 30 minutes, and radiolabel was counted.
# as §1
# [3] = after microinjection into the brain, FIG. 1C
Substance,clearance from the brain ISF [1],"clearance from brain relative to ^125I-Aβ42 (40 nM) ([1]; 40 nM, time-dependent clearance, FIG. 1B)","levels in plasma, compared to inulin [1, 3]","time dependent appearance of TCA precipitable radioactivity in CSF, compared to ^14C-inulin [1, 3]",clearance from the CSF as compared to ^14C-inulin [2],clearance of ^125I-Aβ42 across the BBB ([1]; in vivo),clearance via the ISF bulk flow ([1]; in vivo)
"^125I-apoJ: apolipoprotein J, an 80 kDa sulfated glycoprotein, ligand of LRP2, radioiodinated tracer",rapidly cleared,substantially faster,relatively increased,decreased,rapidly cleared,–,–
"^125I-Aβ42: amyloid-β peptide Aβ42, amyloidogenic with high β-sheet content, radioiodinated tracer [reference compound]",–,–,–,–,–,22%±2%,no a significant change
"inulin [^14C-inulin, reference compound]",slowly removed,–,–,–,–,–,–

# — patent publication US20090156525A1, “Low-Density Lipoprotein Receptor-Related Protein 2 Clears Amyloid-Beta Peptide A cross the Blood-Brain Barrier via Apolipoprotein J” (priority 2005, published 2009)
